Six variants from IntAct's records for PubMed 31515488 can be followed below.

To fix the notation:
B1: Protein phosphatase 1 regulatory inhibitor subunit 16B (Homo sapiens), Q96T49 (parent)
chain: MASHVDLLTELQLLEKVPTLERLRAAQKRRAQQLKKWAQYEQDLQHRKRKHERKRSTGGRRKKVSFEASVALLEASLRNDAEEVRYFLKNKVSPDLCNEDGLTALHQCCIDNFEEIVKLLLSHGANVNAKDNELWTPLHAAATCGHINLVKILVQYGADLLAVNSDGNMPYDLCEDEPTLDVIETCMAYQGITQEKINEMRVAPEQQMIADIHCMIAAGQDLDWIDAQGATLLHIAGANGYLRAAELLLDHGVRVDVKDWDGWEPLHAAAFWGQMQMAELLVSHGASLSARTSMDEMPIDLCEEEEFKVLLLELKHKHDVIMKSQLRHKSSLSRRTSSAGSRGKVVRRASLSDRTNLYRKEYEGEAILWQRSAAEDQRTSTYNGDIRETRTDQENKDPNPRLEKPVLLSEFPTKIPRGELDMPVENGLRAPVSAYQYALANGDVWKVHEVPDYSMAYGNPGVADATPPWSSYKEQSPQTLLELKRQRAAAKLLSHPFLSTHLGSSMARTGESSSEGKAPLIGGRTSPYSSNGTSVYYTVTSGDPPLLKFKAPIEEMEEKVHGCCRIS
partner: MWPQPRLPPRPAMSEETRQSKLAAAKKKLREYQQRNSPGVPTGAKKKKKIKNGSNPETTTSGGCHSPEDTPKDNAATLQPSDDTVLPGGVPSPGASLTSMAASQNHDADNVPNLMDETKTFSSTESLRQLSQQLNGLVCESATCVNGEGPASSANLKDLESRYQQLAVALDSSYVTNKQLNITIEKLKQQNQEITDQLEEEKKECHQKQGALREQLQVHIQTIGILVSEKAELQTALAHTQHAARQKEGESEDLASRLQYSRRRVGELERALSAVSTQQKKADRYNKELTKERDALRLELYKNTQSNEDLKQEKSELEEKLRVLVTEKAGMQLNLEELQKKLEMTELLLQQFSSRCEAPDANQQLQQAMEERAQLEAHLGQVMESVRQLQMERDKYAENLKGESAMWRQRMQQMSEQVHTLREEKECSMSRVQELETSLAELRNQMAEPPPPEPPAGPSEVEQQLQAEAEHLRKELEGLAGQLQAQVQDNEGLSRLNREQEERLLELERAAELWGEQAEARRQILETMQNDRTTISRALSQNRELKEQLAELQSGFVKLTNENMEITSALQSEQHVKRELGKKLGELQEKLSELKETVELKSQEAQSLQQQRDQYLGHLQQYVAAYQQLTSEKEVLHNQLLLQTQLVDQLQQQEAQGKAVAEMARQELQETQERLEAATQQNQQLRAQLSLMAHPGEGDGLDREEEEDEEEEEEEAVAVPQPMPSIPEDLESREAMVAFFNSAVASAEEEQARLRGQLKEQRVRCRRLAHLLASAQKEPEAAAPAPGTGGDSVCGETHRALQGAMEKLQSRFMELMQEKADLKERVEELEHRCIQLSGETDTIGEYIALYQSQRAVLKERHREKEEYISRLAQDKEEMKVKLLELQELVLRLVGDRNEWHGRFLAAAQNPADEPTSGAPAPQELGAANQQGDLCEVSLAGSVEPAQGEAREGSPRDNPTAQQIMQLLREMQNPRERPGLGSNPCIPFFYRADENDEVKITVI
B2: Medium-chain acyl-CoA ligase ACSF2, mitochondrial (Homo sapiens), Q96CM8 (parent)
chain: MAVYVGMLRLGRLCAGSSGVLGARAALSRSWQEARLQGVRFLSSREVDRMVSTPIGGLSYVQGCTKKHLNSKTVGQCLETTAQRVPEREALVVLHEDVRLTFAQLKEEVDKAASGLLSIGLCKGDRLGMWGPNSYAWVLMQLATAQAGIILVSVNPAYQAMELEYVLKKVGCKALVFPKQFKTQQYYNVLKQICPEVENAQPGALKSQRLPDLTTVISVDAPLPGTLLLDEVVAAGSTRQHLDQLQYNQQFLSCHDPINIQFTSGTTGSPKGATLSHYNIVNNSNILGERLKLHEKTPEQLRMILPNPLYHCLGSVAGTMMCLMYGATLILASPIFNGKKALEAISRERGTFLYGTPTMFVDILNQPDFSSYDISTMCGGVIAGSPAPPELIRAIINKINMKDLVVAYGTTENSPVTFAHFPEDTVEQKAESVGRIMPHTEARIMNMEAGTLAKLNTPGELCIRGYCVMLGYWGEPQKTEEAVDQDKWYWTGDVATMNEQGFCKIVGRSKDMIIRGGENIYPAELEDFFHTHPKVQEVQVVGVKDDRMGEEICACIRLKDGEETTVEEIKAFCKGKISHFKIPKYIVFVTNYPLTISGKIQKFKLREQMERHLNL
partner: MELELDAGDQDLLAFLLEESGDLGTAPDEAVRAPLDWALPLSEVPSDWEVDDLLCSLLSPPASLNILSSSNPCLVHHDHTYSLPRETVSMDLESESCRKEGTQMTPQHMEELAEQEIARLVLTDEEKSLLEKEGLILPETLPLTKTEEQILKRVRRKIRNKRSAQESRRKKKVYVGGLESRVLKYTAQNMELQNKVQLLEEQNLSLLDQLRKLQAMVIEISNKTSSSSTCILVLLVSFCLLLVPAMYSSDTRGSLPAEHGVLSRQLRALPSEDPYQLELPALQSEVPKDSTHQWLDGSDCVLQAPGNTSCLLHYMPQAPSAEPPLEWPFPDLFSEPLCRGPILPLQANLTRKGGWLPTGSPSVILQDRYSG
B3: Protein DBF4 homolog B (Homo sapiens), Q8NFT6 (parent)
chain: MSEPGKGDDCLELESSMAESRLRAPDLGVSRCLGKCQKNSPGARKHPFSGKSFYLDLPAGKNLQFLTGAIQQLGGVIEGFLSKEVSYIVSSRREVKAESSGKSHRGCPSPSPSEVRVETSAMVDPKGSHPRPSRKPVDSVPLSRGKELLQKAIRNQGSISGGGSGGSSSLLTNARSWGVRILHVDEMMMHVQQLSLASLCVKKQQPKKPEGTCPAAESRTRKVARLKAPFLKIEDESRKFRPFHHQFKSFPEISFLGPKDASPFEAPTTLGSMHHTRESKDGEPSPRSAAHTMPRRKKGYCECCQEAFEELHVHLQSAQHRSFALEAHLYAEVDRIIAQLSHSFADIPFQAGLPRWSGSPASDCDPLCPETLHPHQPSHPRAASPRIRKEDSCQASVTQGRAAGQQRWTESLDGVMGPPASHTCVSATTLLPALPKGSREQGCLCPCPASFTQSHLVTSLALLPGEWSPAEDMPLHPSQENSFAPADIPVKGPLLFPEARPWLMSARCWVRPFPFVTWGCLIPHDTTPLHEEVSPCPCLRLGYLYLLLTQSLWCRVRVPSLSTAGPIPRTSHPCTLAFPSYLNDHDLGHLCQAKPQGWNTPQPFLHCGFLAVDSG
partner: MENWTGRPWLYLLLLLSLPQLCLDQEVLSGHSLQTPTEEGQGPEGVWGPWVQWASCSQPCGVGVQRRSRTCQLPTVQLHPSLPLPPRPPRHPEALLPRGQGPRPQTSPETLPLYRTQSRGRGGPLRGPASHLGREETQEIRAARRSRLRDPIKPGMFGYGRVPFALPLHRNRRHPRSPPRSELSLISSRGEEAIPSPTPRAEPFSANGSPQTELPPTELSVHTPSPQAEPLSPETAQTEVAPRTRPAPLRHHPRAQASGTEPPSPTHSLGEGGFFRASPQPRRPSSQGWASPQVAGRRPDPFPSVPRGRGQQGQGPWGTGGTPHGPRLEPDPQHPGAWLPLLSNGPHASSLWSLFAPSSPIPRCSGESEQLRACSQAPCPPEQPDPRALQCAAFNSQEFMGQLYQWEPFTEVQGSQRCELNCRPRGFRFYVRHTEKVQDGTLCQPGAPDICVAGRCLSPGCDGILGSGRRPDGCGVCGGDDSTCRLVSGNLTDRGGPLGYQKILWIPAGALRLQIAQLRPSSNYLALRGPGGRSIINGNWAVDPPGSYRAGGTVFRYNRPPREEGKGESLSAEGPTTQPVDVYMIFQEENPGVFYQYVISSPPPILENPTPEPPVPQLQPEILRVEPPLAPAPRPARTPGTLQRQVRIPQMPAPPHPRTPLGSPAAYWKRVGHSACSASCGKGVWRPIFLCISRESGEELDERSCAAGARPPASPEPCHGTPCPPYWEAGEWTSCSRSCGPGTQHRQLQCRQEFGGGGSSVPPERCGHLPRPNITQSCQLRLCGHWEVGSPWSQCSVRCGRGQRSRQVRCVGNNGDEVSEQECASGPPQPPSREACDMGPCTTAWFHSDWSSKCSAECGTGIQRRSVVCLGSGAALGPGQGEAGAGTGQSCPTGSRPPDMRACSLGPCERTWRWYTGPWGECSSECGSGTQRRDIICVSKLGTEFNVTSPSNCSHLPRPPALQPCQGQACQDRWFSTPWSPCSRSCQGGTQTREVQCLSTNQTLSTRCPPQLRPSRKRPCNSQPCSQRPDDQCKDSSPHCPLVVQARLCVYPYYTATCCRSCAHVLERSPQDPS
B4: Alpha-taxilin (Homo sapiens), P40222 (parent)
chain: MKNQDKKNGAAKQSNPKSSPGQPEAGPEGAQERPSQAAPAVEAEGPGSSQAPRKPEGAQARTAQSGALRDVSEELSRQLEDILSTYCVDNNQGGPGEDGAQGEPAEPEDAEKSRTYVARNGEPEPTPVVNGEKEPSKGDPNTEEIRQSDEVGDRDHRRPQEKKKAKGLGKEITLLMQTLNTLSTPEEKLAALCKKYAELLEEHRNSQKQMKLLQKKQSQLVQEKDHLRGEHSKAVLARSKLESLCRELQRHNRSLKEEGVQRAREEEEKRKEVTSHFQVTLNDIQLQMEQHNERNSKLRQENMELAERLKKLIEQYELREEHIDKVFKHKDLQQQLVDAKLQQAQEMLKEAEERHQREKDFLLKEAVESQRMCELMKQQETHLKQQLALYTEKFEEFQNTLSKSSEVFTTFKQEMEKMTKKIKKLEKETTMYRSRWESSNKALLEMAEEKTVRDKELEGLQVKIQRLEKLCRALQTERNDLNKRVQDLSAGGQGSLTDSGPERRPEGPGAQAPSSPRVTEAPCYPGAPSTEASGQTGPQEPTSARA
partner: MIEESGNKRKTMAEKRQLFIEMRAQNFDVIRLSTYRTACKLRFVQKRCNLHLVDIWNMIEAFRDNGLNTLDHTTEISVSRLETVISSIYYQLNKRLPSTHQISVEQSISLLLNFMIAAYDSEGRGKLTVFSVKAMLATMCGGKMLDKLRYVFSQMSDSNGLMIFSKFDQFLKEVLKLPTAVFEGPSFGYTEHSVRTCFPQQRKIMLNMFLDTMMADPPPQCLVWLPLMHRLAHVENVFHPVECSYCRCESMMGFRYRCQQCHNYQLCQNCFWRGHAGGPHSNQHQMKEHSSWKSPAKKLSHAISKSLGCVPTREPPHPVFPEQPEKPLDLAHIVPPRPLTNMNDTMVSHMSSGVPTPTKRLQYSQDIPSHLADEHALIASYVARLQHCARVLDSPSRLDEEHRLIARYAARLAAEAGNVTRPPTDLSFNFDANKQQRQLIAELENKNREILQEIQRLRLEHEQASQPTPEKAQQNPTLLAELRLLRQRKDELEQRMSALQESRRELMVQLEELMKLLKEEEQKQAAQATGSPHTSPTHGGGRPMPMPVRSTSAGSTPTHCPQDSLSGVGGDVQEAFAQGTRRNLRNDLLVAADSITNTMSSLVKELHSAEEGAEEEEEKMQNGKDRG
B5: Katanin p60 ATPase-containing subunit A-like 1 (Homo sapiens), Q9BW62 (parent)
chain: MNLAEICDNAKKGREYALLGNYDSSMVYYQGVMQQIQRHCQSVRDPAIKGKWQQVRQELLEEYEQVKSIVSTLESFKIDKPPDFPVSCQDEPFRDPAVWPPPVPAEHRAPPQIRRPNREVRPLRKEMAGVGARGPVGRAHPISKSEKPSTSRDKDYRARGRDDKGRKNMQDGASDGEMPKFDGAGYDKDLVEALERDIVSRNPSIHWDDIADLEEAKKLLREAVVLPMWMPDFFKGIRRPWKGVLMVGPPGTGKTMLAKAVATECGTTFFNVSSSTLTSKYRGESEKLVRLLFEMARFYAPTTIFIDEIDSICSRRGTSDEHEASRRVKSELLIQMDGVGGALENDDPSKMVMVLAATNFPWDIDEALRRRLEKRIYIPLPTAKGRAELLKINLREVELDPDIQLEDIAEKIEGYSGADITNVCRDASLMAMRRRINGLSPEEIRALSKEELQMPVTKGDFELALKKIAKSVSAADLEKYEKWMVEFGSA
partner: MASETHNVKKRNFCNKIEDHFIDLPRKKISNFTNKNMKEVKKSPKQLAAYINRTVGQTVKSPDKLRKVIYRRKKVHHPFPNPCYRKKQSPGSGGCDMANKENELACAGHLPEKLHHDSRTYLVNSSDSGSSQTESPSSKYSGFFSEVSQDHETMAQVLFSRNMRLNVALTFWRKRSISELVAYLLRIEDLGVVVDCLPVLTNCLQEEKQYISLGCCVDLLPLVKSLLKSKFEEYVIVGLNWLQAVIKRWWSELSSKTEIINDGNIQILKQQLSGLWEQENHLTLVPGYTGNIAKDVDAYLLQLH

In one experiment the parent is B1. To be noted: with goga2_human GOLGA2, Q08379.
P519S: the “effect of a mutation on the interaction” value is “with no effect”.

In a further experiment the parent is B2. The following applies: with creb3_human CREB3, O43889.
With G19W, the “effect of a mutation on the interaction” value is “disrupting interaction strength”.

For A34V, the “effect of a mutation on the interaction” value was “disrupting interaction strength”.

In a further experiment the parent is B3. To be noted: with atl4_human ADAMTSL4, Q6UY14.
On to L199S, for which the “effect of a mutation on the interaction” value is recorded as “with no effect”.

The variants in a further experiment derive from B4. The following applies: with dtnb_human DTNB.
On to R154G, for which the “effect of a mutation on the interaction” value is “disrupting interaction strength”.

The next experiment covers variants of B5. To be noted: with ktbl1_human KATNBL1, Q9H079.
A300S: the “effect of a mutation on the interaction” value is “with no effect”.
